According to the nanobody polyreactivity screen of Harvey et al. (2022):

Test: yeast display, Sf9 membrane polyspecificity reagent, FACS + sequencing; frameworks hold sequencing errors
How it was run: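 A synthetic nanobody library was expressed on Saccharomyces cerevisiae BJ5465 by galactose induction for 36–48 hours. The library was stained for 1 hour at 4 °C with 10% biotinylated, detergent-solubilized Sf9 membrane reagent and enriched with streptavidin microbeads before FACS. Low and high (top ~1%) gates were set on anti-HA fluorescence for expression and streptavidin fluorescence for reagent binding, and each polyreactivity label reflects the gate of origin.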

Sequence	polyreactivity (PSR sort gate)
QVQLVESGGGLVQAGGSLRLRCAASGSIFAHYTMGWYRQAPGKERELVAVISRSGARTYYADSVKGRFTISRDNAKNTVYLQMNSLKPEDTEVYYCAADRTLEEDYWGQGTQVTVSS	low polyreactivity
QVQLVESGGGLVQAGGSLRLRCAASGSIFFFYAMGWYRQAPGKERELVAAISKSPSSTYYADSVKGRFTISRDNAKNTVYLQMNSLKPEDTAVYYCNNGYSGIQYYYWGHGTQVTVSS	low polyreactivity
QVQLVESGGGLVQAGGSLRLRCAASGSIFHSYAMAWYSQAPGKEREMVASITASVDSTYYADSVKGRFTISRDNAKNTVYLQMNSLIPEDTAVYYCAAEAQFNFYSYDFWGQGTQVTVSS	low polyreactivity
QVQLVESGGGLVQAGGSLRLRCAASGSIFKSNAMGWYRQAPGKERELVAAISNGGITNYADSVKGRFTISRDNAKNTVYLQMNSLKPEDTAVYYCATSDVREIWVDYCGQGTQVTVSS	low polyreactivity
QVQLVESGGGLVQAGGSLRLRCAASGSIFLVNALGWYRQAPGKEWELVASITWRGGRTYYADSVKGRFTISRDTAKKTVYLQMNRLKPADTAVYYCSALNYRTGERLRYDYWGQGTQVTVSS	low polyreactivity
QVQLVESGGGLVQAGGSLRLRCAASGSIFNSYAMGWYRQAPGKERELVPAISRRGGSTYYADSVKGRFTISRDNAKNTVYLQMHSLKPEDTAVYYCNATRPRLTYLGVGYGYDYWGQGTQVTVSS	high polyreactivity
QVQLVESGGGLVQAGGSLRLRCAASGSIFSGNAMGWYRQAPGKESELVAAISVNGGRTYYADSVKGRFTISRDNAKNTVSLQMNSLKPEDTAVYYCNAVTKVVYHGPYGYDYWGQGTQVTVSS	high polyreactivity
QVQLVESGGGLVQAGGSLRLRCAASGSIFWWYTMGWYRQAPGKERELVASISWSGTSTYYADSVKGRFTISRDNAKYTVYLQMNSLKPEDTALYYCNAVVYWPGTPYTHDDWGQGTQVTVSS	low polyreactivity
QVQLVESGGGLVQAGGSLRLRCAASGSTFAWYAMGWYRQAPGKERELVAAISRTGRTYYADSVKGRFTISRDNAKNTVYLQMNSLKPEDTAVYYCAARIERFYRDQRYDYWGQGTQVTVSS	high polyreactivity
QVQLVESGGGLVQAGGSLRLRCAASGSTFFRYAMGWYRPAPGKERELLAAITSGGITNYADSVKGRFTISRDNAKNTVYLQMHSLKPEDTAVYYCAKRRTYPGKGRFNYWGQGTQVTVSS	low polyreactivity
QVQLVESGGGLVQAGGSLRLRCAASGSTFGYNAMGWYRQAPGKESELVAAISSSGGTTYYADSVKARFTISRDNAKNTVYLQMNSLKPEDTAVYYCAADHTVGRYEFEFWGQGTQVTVSS	low polyreactivity
QVQLVESGGGLVQAGGSLRLRCAASGSTFNRYAMGWYRQAPWKERELVAAINWRGGRTYYADSVKGRFTISRDNAKNTVYLQMNSLKPEDTAVYYCNADVTSLTRVHGRFIVSDDDYWGQGTQVTVSS	low polyreactivity
QVQLVESGGGLVQAGGSLRLRCAASGSTIRCYAMGWYRQAPGKERELVAAIRRGGSTYYADSVKGRFTISRDNAKNTVYLQKNSLKPEVTAVYYCAAEPGYYSRQDYRVYRLYYWGQGTQVTVSS	high polyreactivity
QVQLVESGGGLVQAGGSLRLRCAASGSTYTVYAMGWYRQAPRKDRELVAAIRDGSSTNYADSVKGRFTISRDNAKNTVYLQRNSLKPEDTAVYYCNAPYPPTGYGDDDYWGQGTQVTVSA	low polyreactivity
QVQLVESGGGLVQAGGSLRLRCAASGYIIKYNAMGWYRQAPGKERELVAAISSIGGRTYYADSVKGRFTISRDNAKNTVYLQMNSLKPEDTAVYYCNAVGGRYTGWRYDYWGQGPQVTVSS	high polyreactivity
QVQLVESGGGLVQAGGSLRLRCASSGSIFYWYAMGWYRQAPGKERELVAAISRSGGSTYYADSVKGRFTISRDNAKNTVYLQMNSLKPEDTAVYYCATELSYRHGYWGQGTQVTVSS	high polyreactivity
QVQLVESGGGLVQAGGSLRLRCDASGRTFFKNAMGWYRQAPGKERELVAAITSTGGRTYYADSVKGRFPISRDTAKNNVYVEMNSLKPEDTAVYYCAASNFYSGYYYWRQGTQVTVSS	high polyreactivity
QVQLVESGGGLVQAGGSLRLRCGASGFIFDQYAMGWYRQAPGKERELVAAITYSGGGTYYADSVKGRFTISRDNAKNTVYLQMNSLKPEDTAVYYCADLFGYSLYDAQYDYWGQGTQVTVSS	low polyreactivity
QVQLVESGGGLVQAGGSLRLRFAASGSIFVRNALGWYRQAPGKERELVAAITYSGSRTYSADSVKGRFTISRDNAKNTVYLQMNSLKPEETAVYYCAKVRVLVDKWSTFYEYYYWGQGTQVTVSS	low polyreactivity
QVQLVESGGGLVQAGGSLRLRSAASGFTFHRYAMGWSRQAPGKERELVAGITRRSGSTFYADSVKGRFTISRDNAKNTVYLQMNSLKPEDTAVYYCAATVPGLHWIYDYWGQGTQVTVSS	high polyreactivity
QVQLVESGGGLVQAGGSLRLSCAAAGRIFVGYAMGWYRQAPGKERELVAGISRSGYSTYYADSVKGRFTISRDNAKNTVYLQMNSLKPEDTAVYYCAASWYKNPTRYYYWGQGTQVTVSS	high polyreactivity
QVQLVESGGGLVQAGGSLRLSCAAAGRTFYPYVMGWYRQAPGKERELVATISWSGGSTYYADSVKGRFTISRDNAKNSVYLQMNSLKPEDTAVYYCAALWPYGYWGQGTQVTVSS	low polyreactivity

Sequence	polyreactivity (PSR sort gate)
QVQLVESGGGLVQAGGSLRLSCAAAGSIFYYKTMGWYRQAPGKEREMVAAISWSGGSTSYADSVKGRFTISRDNAKNTVYLQMNSLKPEDTAVYYCNVDYGVHVTARDYWGQGTQVTVSS	low polyreactivity
QVQLVESGGGLVQAGGSLRLSCAAAGSIVWFYAMGWYRQAPGKERELFASISSSGGSTYYADSVKGRFTISRDKAKNPGNIQMNTLKPEYTAVYYCAKRTNWGYWYNSWGQGTQVTVSS	high polyreactivity
QVQLVESGGGLVQAGGSLRLSCAACGFTFLRYVMGWYRQAPGKERELVAAISYSGGRTYYADSVKGRFTISRDNAKNTVYLQMNSLKPEDTAVYYCAAARPVGYPPVLKYAYWGQGTQVTVSS	high polyreactivity
QVQLVESGGGLVQAGGSLRLSCAACGGTFRSNAMGWYRQAPGKERELVAASTNYADSVKGRFTISRDNAKNTVYLQMNSLKPEDTAVYYCAAGPTDSQTGMDYWGQGTQVTVSS	low polyreactivity
QVQLVESGGGLVQAGGSLRLSCAACGIIFSWYAMGWYRQAPGKERELVAAISSSGGTTFYADSVKGRFTISRDKAKNTVYLQMNSLKPEDTAVYYCAVVGPPYYTWRVWRPAYDYWGQGTQVTVSS	high polyreactivity
QVQLVESGGGLVQAGGSLRLSCAACGIPLRLNAIGWYRQAPGKERELVARITWRGSTYYADSVKGRFTISRDNAKNTVYLQMNSLKPEDTAVYYCAADNRSWQPPTILPPGASDYWGQGTQVTVSS	low polyreactivity
QVQLVESGGGLVQAGGSLRLSCAACGITFTSNAMGWYRQAPGKERELVASISWSDDNTHYADSVKGRFTISRDNAKYTVYLQMNSLKPEDTAVYYCAADGTHPRPGTYKFDYWGQGTQVTVSS	low polyreactivity
QVQLVESGGGLVQAGGSLRLSCAACGRIFGGNTMGWYRQAPGKQRELVAAITVRGGSTYYADSVKGRFTISRDNAKNTVYLQMNSLKPEDTAVYYCAARRRIFPPRFGYWGQGTQVTVSS	high polyreactivity
QVQLVESGGGLVQAGGSLRLSCAACGRTFQWYPMGGFRQAPGTERELVAAISWSGTSTYYADSVKGRFTISRDNAKHTVYLQMNSLKPEDTAVYYCNKPCDVWDHDYDYWGQGTQVTVST	low polyreactivity
QVQLVESGGGLVQAGGSLRLSCAACGRTFVSYAMGWYRQAPGKERELVAAITNAGSTYYADSVKGRFTISRDNAKNTVYLQMNSLKPEDTAVYYCAATYWDYWGYGYDYWGQGTQVTVSS	high polyreactivity
QVQLVESGGGLVQAGGSLRLSCAACGSIFLSNSMGWYRQAPGKERELVADIDWTGGDTYYADSVKGRFTISRDNAMNTVYLQMNSLKPEDTAFYYCAADYGYRNLLTEYGYWVQGTQVTVSS	low polyreactivity
QVQLVESGGGLVQAGGSLRLSCAACGSIFPGYAMGWYRQAPGKERELVATIRWSSGSRTNYADSVKGRFTISRDNAKNTVYLQMNSLKPEDTAVYYCAAGSRRYKYDYWGQGTQVTVSS	high polyreactivity
QVQLVESGGGLVQAGGSLRLSCAACGSTFDVNARGWYRQAPGKERELVAAISWSDDDTYYADSVKGRFTISRDNAKNTDYLQKHSLKPEDTAVYYCAADGRYGWYYGVYNGEDYWGQGTQVTVSS	high polyreactivity
QVQLVESGGGLVQAGGSLRLSCAACGSTFGSYAMGWYRQAPGKERELVADITSGGSTYYADSVKGRFTISRDNAKNTVYLQMNSLKPEDTAVYYCAVEGWWDDYKSGAGEFNYWGQGTQVTVSS	low polyreactivity
QVQLVESGGGLVQAGGSLRLSCAACGSTFPYNAMGWYRQAPGKERELVAAISGNGDSTFYADSVKGRFTISRDNAKNTVYLQMNSLKPEDTAVYYCAAEQYYGYYFYGYWGQGTQVTVSS	high polyreactivity
QVQLVESGGGLVQAGGSLRLSCAACGSTFWYYVMGWYRQAPGKERELVAAISTRGDSTYYADSVKGRFTISRDNAKNTVYLQMNSLKAEDTAVYYCAKSRQSSGRVRFDYWGQGTQVTVSS	low polyreactivity
QVQLVESGGGLVQAGGSLRLSCAAFGFTFNAYALGWYRQAPGKERELVAGITSSGGGTYYADSVKGRFTISRDNAKNTVYLEMNSLKPEDTAVYYCNTYSYLFSRYGYWGQGTQVTVSS	high polyreactivity
QVQLVESGGGLVQAGGSLRLSCAAFGPIFQYYAMGSYRQAPGKERELVAAITRSGGSTYYADSVKGRFTISRDNAKNTVYLQMNSLKPEDTAVYYCAAYSRYTVREGYDYWGQGTQVTVSS	high polyreactivity
QVQLVESGGGLVQAGGSLRLSCAAPGSTFVAYAMGWYRQAPGKERELVAAISSVGRTNYADSVKGRFTISRDNAKNTVYLQMNSLKPEDTAVYYCAAVYVDRRKRSYYWGQGTQVTVSS	high polyreactivity
QVQLVESGGGLVQAGGSLRLSCAASAGTFWNAMGWYRQAPGKERELVATITSGSSTNYADSVKGRFTISRDNAKNTVYLQMNSLKPEDTAVYYCNARTIPWPYIVSYDYWGQGTQVTVSS	high polyreactivity
QVQLVESGGGLVQAGGSLRLSCAASALTLRTYAMGWYRQAPGKERELVAAITTGGSTYYADSVKGRFTISRDNAKNTVYLQLNSLKPEDTAVYYCAADFIRYINRLLYDYWGQGTQVTVSS	low polyreactivity
